Reference: publication PMC8203779, “Distinct mechanisms of the human mitoribosome recycling and antibiotic resistance” (Nature Communications, 2021)

Target: mitoribosomal protein uL12m (39S subunit, L10-L12 stalk) (human (endogenous in HEK293S GnTI), UniProt P52815 37-198)
Test: cryo-EM structure; model PoTC (150 nM 55S mitoribosomes + 50 uM puromycin, 10 min 37 °C) with 15 uM RRFmt (5 min 37 °C), then 5 uM EF-G2mt + 200 uM GMPPCP (5 s, 30 s, 2 min, 37 °C), HEPES polymix buffer pH 7.5; single-particle classes: Class I 55S•RRFmt, Class II 55S•RRFmt•EF-G2mt•GMPPCP, Class III 39S•RRFmt•EF-G2mt•GMPPCP
Conditions: both partners purified

B1: human EF-G2mt (recycling-specific mitochondrial homolog of elongation factor G) (natural protein)
chain: MLTNLRIFAMSHQTIPSVYINNICCYKIRASLKRLKPHVPLGRNCSSLPGLIGNDIKSLHSIINPPIAKIRNIGIMAHIDAGKTTTTERILYYSGYTRSLGDVDDGDTVTDFMAQERERGITIQSAAVTFDWKGYRVNLIDTPGHVDFTLEVERCLRVLDGAVAVFDASAGVEAQTLTVWRQADKHNIPRICFLNKMDKTGASFKYAVESIREKLKAKPLLLQLPIGEAKTFKGVVDVVMKEKLLWNCNSNDGKDFERKPLLEMNDPELLKETTEARNALIEQVADLDDEFADLVLEEFSENFDLLPAEKLQTAIHRVTLAQTAVPVLCGSALKNKGIQPLLDAVTMYLPSPEERNYEFLQWYKDDLCALAFKVLHDKQRGPLVFMRIYSGTIKPQLAIHNINGNCTERISRLLLPFADQHVEIPSLTAGNIALTVGLKHTATGDTIVSSKSSALAAARRAEREGEKKHRQNNEAERLLLAGVEIPEPVFFCTIEPPSLSKQPDLEHALKCLQREDPSLKVRLDPDSGQTVLCGMGELHIEIIHDRIKREYGLETYLGPLQVAYRETILNSVRATDTLDRTLGDKRHLVTVEVEARPIETSSVMPVIEFEYAESINEGLLKVSQEAIENGIHSACLQGPLLGSPIQDVAITLHSLTIHPGTSTTMISACVSRCVQKALKKADKQVLEPLMNLEVTVARDYLSPVLADLAQRRGNIQEIQTRQDNKVVIGFVPLAEIMGYSTVLRTLTSGSATFALELSTYQAMNPQDQNTLLNRRSGLT
notes: mitochondrial elongation factor G2 (EF-G2mt), human, 87 kD; contact residues up to Leu778 are printed; Cloned into pGEX6.1; also called EF-G2mt-GMPPCP; source: Rossetta (pLysS + RARE) cells, purified (GSTrap HP, GST cleaved with 3C protease, HiTrap Q HP)
Question: Does B1 bind?
Answer: binds
